Results on 3 proteins are retold here after publication PMC4650713, “Crystal structure of Bax bound to the BH3 peptide of Bim identifies important contacts for interaction” (Cell Death & Disease, 2015).

Series [1] deals with the molecule itself. Kind of series: crystal structure; BidBH3, BimBH3mini or BidBH3mini with core/latch dimers of BaxI66AΔC21, BaxΔC26 or BaxΔC28; threefold molar excess of peptide; about 1 M tri-sodium citrate, 0.1 M sodium cacodylate pH 6.5, 277 K.
Series [2] concerns the molecule itself. Kind of series: crystal structure; BimBH3:BaxΔC26; core/latch dimer induced by peptide, purified by SEC, threefold molar excess of peptide added; 0.1 M sodium bicine pH 9.0, 20% PEG6000, 277 K. For orientation: Size exclusion chromatography separates by hydrodynamic size, large species first.

B1: BaxΔC28 (domain or fragment)
chain: MDGSGEQPRGGGPTSSEQIMKTGALLLQGFIQDRAGRMGGEAPELALDPVPQDASTKKLSESLKRIGDELDSNMELQRMIAAVDTDSPREVFFRVAADMFSDGNFNWGRVVALFYFASKLVLKALSTKVPELIRTIMGWTLDFLRERLLGWIQDQGGWDGLLSYSS
notes: Bax truncated at the C terminus by 28 amino acids, with C62S and C126S; lacks F165; two extra residues (Ser–Ser) at the C terminus after intein digestion, a cloning artefact; In the crystal it stands as a core/latch dimer; also called Bax C62S C126S truncated at the C terminus by 28 amino acids
Regarding B1, in series [1], the “stoichiometry N” value came out at 2.

B2: BaxΔC26 (domain or fragment)
chain: MDGSGEQPRGGGPTSSEQIMKTGALLLQGFIQDRAGRMGGEAPELALDPVPQDASTKKLSESLKRIGDELDSNMELQRMIAAVDTDSPREVFFRVAADMFSDGNFNWGRVVALFYFASKLVLKALSTKVPELIRTIMGWTLDFLRERLLGWIQDQGGWDGLLSYFGSS
notes: Bax truncated at the C terminus by 26 amino acids, with C62S and C126S; C terminus G166; two extra residues (Ser–Ser) at the C terminus after intein digestion, a cloning artefact; In the crystals it stands as a domain-swapped core/latch dimer, each chain with one BH3 peptide; also called Bax C62S C126S truncated at the C terminus by 26 amino acids
On to B2, for which the “stoichiometry N” value in series [2] worked out at 2.

B3: BaxI66AΔC21 (domain or fragment, UniProt Q07812 1-171, looked up)
chain: MDGSGEQPRGGGPTSSEQIMKTGALLLQGFIQDRAGRMGGEAPELALDPVPQDASTKKLSESLKRAGDELDSNMELQRMIAAVDTDSPREVFFRVAADMFSDGNFNWGRVVALFYFASKLVLKALSTKVPELIRTIMGWTLDFLRERLLGWIQDQGGWDGLLSYFGTPTWQ
notes: BaxΔC21 (Bax truncated at the C terminus by 21 amino acids, with C62S and C126S) with I66A; Called a BaxΔC21 mutant; In the crystal it stands as a core/latch dimer; also called BaxΔC21 mutant I66A
As for B3, the “stoichiometry N” value in series [1] stood at 2.

By stoichiometry N is commonly meant a count of units in the complex or per binding partner.
